From patent publication US20130095108

T1: Corn Trypsin Inhibitor (CTI, Calbiochem), P01088
T1 chain: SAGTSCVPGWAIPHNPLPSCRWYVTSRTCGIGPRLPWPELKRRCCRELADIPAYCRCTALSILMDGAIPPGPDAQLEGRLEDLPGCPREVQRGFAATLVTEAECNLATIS


What was measured:
[1] = target: T1, Corn Trypsin Inhibitor (CTI, …)
[2] = target: Peptide LRG20 (position 166-185) from uPAR's domain 2
[3] = target: Peptide TCK from uPAR's domain 2 (position 196-214)

| Protein | FXII activity assay using chromogenic substrate [1] | [3H]-thymidine incorporation in murine lung fibroblasts [1] | p44/42 and Akt phosphorylation (Western blot) in murine lung fibroblasts [1] | [3H]-thymidine incorporation in murine lung fibroblasts [2] | [3H]-thymidine incorporation in murine lung fibroblasts [3] | [3H]-thymidine incorporation in murine lung fibroblasts (random peptide) |
| --- | --- | --- | --- | --- | --- | --- |
| FXII in bronchoalveolar lavage fluid (BALF) from IPF patients (protein) IPPWEAPKEHKYKAEEHTVVLTVTGEPCHFPFQYHRQLYHKCTHKGRPGPQPWCATTPNFDQDQRWGYCLEPKKVKDHCSKHSPCQKGGTCVNMPSGPHCLCPQHLTGNHCQKEKCFEPQLLRFFHKNEIWYRTEQAAVARCQCKGPDAHCQRLASQACRTNPCLHGGRCLEVEGHRLCHCPVGYTGAFCDVDTKASCYDGRGLSYRGLARTTLSGAPCQPWASEATYRNVTAEQARNWGLGGHAFCRNPDNDIRPWCFVLNRDRLSWEYCDLAQCQTPTQAAPPTPVSPRLHVPLMPAQPAPPKPQPTTRTPPQSQTPGALPAKREQPPSLTRNGPLSCGQRLRKSLSSMTRVVGGLVALRGAHPYIAALYWGHSFCAGSLIAPCWVLTAAHCLQDRPAPEDLTVVLGQERRNHSCEPCQTLAVRSYRLHEAFSPVSYQHDLALLRLQEDADGSCALLSPYVQPVCLPSGAARPSETTLCQVAGWGHQFEGAEEYASFLQEAQVPFLSLERCSAPDVHGSSILPGMLCAGFLEGGTDACQGDSGGPLVCEDQAAERRLTLQGIISWGSGCGDRNKPGVYTDVAYYLAWIREHTVS | The specificity of performed assay was proved by blockade of FXII activity by its inhibitor, Corn Trypsin Inhibitor (CTI) | – | – | – | – | – |
| FXIIa (activated factor XII; American Diagnostica, Stamford, Conn.) (protein) IPPWEAPKEHKYKAEEHTVVLTVTGEPCHFPFQYHRQLYHKCTHKGRPGPQPWCATTPNFDQDQRWGYCLEPKKVKDHCSKHSPCQKGGTCVNMPSGPHCLCPQHLTGNHCQKEKCFEPQLLRFFHKNEIWYRTEQAAVARCQCKGPDAHCQRLASQACRTNPCLHGGRCLEVEGHRLCHCPVGYTGAFCDVDTKASCYDGRGLSYRGLARTTLSGAPCQPWASEATYRNVTAEQARNWGLGGHAFCRNPDNDIRPWCFVLNRDRLSWEYCDLAQCQTPTQAAPPTPVSPRLHVPLMPAQPAPPKPQPTTRTPPQSQTPGALPAKREQPPSLTRNGPLSCGQRLRKSLSSMTRVVGGLVALRGAHPYIAALYWGHSFCAGSLIAPCWVLTAAHCLQDRPAPEDLTVVLGQERRNHSCEPCQTLAVRSYRLHEAFSPVSYQHDLALLRLQEDADGSCALLSPYVQPVCLPSGAARPSETTLCQVAGWGHQFEGAEEYASFLQEAQVPFLSLERCSAPDVHGSSILPGMLCAGFLEGGTDACQGDSGGPLVCEDQAAERRLTLQGIISWGSGCGDRNKPGVYTDVAYYLAWIREHTVS | – | FXII-induced proliferation was blocked by FXIIa specific inhibitor, CTI | CTI attenuated p44/42 and Akt phosphorylation after 30 min of FXIIa exposure | Peptide LRG20 (position 166-185) from uPAR's domain 2 blocked increase in DNA synthesis after FXIIa stimulation | peptide TCK from domain 2 (position 196-214) and random peptide had no effect on FXIIa induced proliferation | peptide TCK from domain 2 (position 196-214) and random peptide had no effect on FXIIa induced proliferation |
